These results are taken from patent US5591427A, “Human Interleukin-3(Il-3) variants and their use to promote or antagonize IL-3-mediated processes” (Medvet Science Pty. Ltd., priority 1979, dated 1997).

In one assay the test system is monocytes. The assay is described as follows: Stimulation of human monocyte adherence (51Cr adhesion assay). It is filed as cell-based. Conditions: for stimulation of monocyte adherence: FIG. 3. Here is the method:
(a) Monocyte purification. Monocytes were purified from the peripheral blood of normal donors, obtained from the Adelaide Red Cross Transfusion Service, as previously described (Elliott et. al., 1990, J. Immunol., 145, 167-171). In brief, mononuclear cells were prepared by centrifugation of whole blood on lymphoprep cushions (Nyegaard, Oslo, Norway) and washed twice in HBSS, 0.02% EDTA, 0.1% heat inactivated FCS (Flow Laboratories, North Ryde, Australia) and monocytes were purified in a Beckman J-6M/E elutriator using the Sanderson chamber, a flow rate of 12 ml/min and a constant rotor speed of 2050 rpm. Cells remaining in the chamber after 30 min were collected, washed twice in HBSS, and used immediately. Using these methods, monocyte purity as assessed by morphology and nonspecific-esterase staining was always >90% and usually >95%. The major contaminating cell types were lymphocytes and granulocytes (principally basophils).
(b) Adhesion assay. Adhesion was measured by an isotopic method essentially as described (Elliott et. al., supra). In brief, purified monocytes (0.5 to 1×10^8) were resuspended in 1 ml RPMI 1640 with 0.1% FCS and antibiotics and incubated for 30 min at 37° C. with 500 μCi^51 Cr in the form of sodium chromate (Amersham International., Buckinghamshire, England). Cells were washed thrice in RPMI 1640 and resuspended in culture medium consisting of RPMI 1640, 10% FCS, antibiotics, and 0.2% sodium bicarbonate. For measurement of adhesion, 1 to 2.5×10^5 monocytes were aliquotted per well in 96-well microtitre plates (Nunc, Karnstrup, Denmark) together with stimuli or control medium to a total volume of […], and incubated for the indicated periods. […] At harvest, samples of supernatant were taken to assess spontaneous ^51 Cr release (usually <10% of cell-associated radioactivity), wells were washed three times with RPMI 1640 at 37° C., and residual adherent cells lysed in 10 mM Tris-hydrochloride, and 1% Nonident p40 detergent (Sigma). Lysates were transferred to tubes and counted in a Packard auto-gamma 5650. Percent adherence was calculated according to the formula: [formula]

The subject of another assay is basophils. The assay is described as follows: Histamine release assay with basophils. It counts as cell-based, human. The note with it: FIG. 4. Here is the method:
This was carried out as previously described (Lopez et. al., 1990, J. Cell. Physiol., 145, 69-77). Briefly, basophils were obtained from the peripheral blood of normal individuals after dextran sedimentation and centrifugation over Lymphoprep. The percentage of basophils in these preparations varied between 0.2% and 10%. In 300 μl 2×10^4 cells were incubated with 2 μg/ml of purified human IgE. IgE-sensitisedcells were mixed with a goat IgG antihuman IgE (Cappel 0101-0061) and rhIL-3, in a final volume of 500 μl. After incubation for 60 min at 37° C., the cells were centrifuged and 350 μl aliquots removed and stored at -20° C. before assaying for histamine content. Histamine was assayed using a radioertzymatic method essentially as described (Shaff and Beavan, 1979, Anal. Biochem., 94, 425-430). Briefly, samples of 30 μl were diluted with an equal volume of water and mixed with a 30 μl solution comprising 27.5 μl 0.1 M sodium phosphate, pH 7.9, 1.5 μl rat kidney histamine-N-methyltransferase, and 1.0 μl (0.5 μCi)^3 H-methyl-S-adensoyl-L-methionine (Dupont Net 155, low SA). Tritium-labelled methyl-histamine was extracted into chloroform/ether, dried, and counted by scintillation spectrophotometry. […] as nanograms of histamine per milliliter by extrapolation to a standard curve constructed with 10, 5 and 1 ng/ml of histamine (SIGMA).

Assay [1] concerns bone marrow progenitor cells. In words: Colony assay: clonal proliferation and differentiation of bone marrow progenitor cells in semi-solid agar. It counts as cell-based. Here is the method:
(a) Colony assay: this assay measured the clonal proliferation and differentiation of bone marrow progenitor cells in semi-solid agar and was carried out as described (Lopez et. al., 1985, Blood 72, 1797-1804). Briefly, low density, macrophage-depleted bone marrow cells were cultured at a concentration of 0.5 to 1×10^5 /mL in Iscove's modified Dulbecco's medium (IMDM, GIBCI, Grant Island, N.Y.), containing 0.33% agar (Difco, Detroit), 25% FCS (Commonwealth Serum Laboratories, Parkville, Victoria, Australia), and 20 μmol/LK2-mercaptoethanol. Different dilutions of IL-3- containing COS cell supernatants were added to each plate. Plates were prepared in triplicate and scored after incubation at 37° C. in 5% CO2 in a humid atmosphere for 14 days. Clones containing 40 cells were scored as colonies.

Assay [2] relates to chronic myeloid leukaemic (CML) cells. In words: Proliferation of chronic myeloid leukaemic (CML) cells, [3H] thymidine incorporation. It is filed as cell-based, human. The note with it: for stimulation of CML cell proliferation: FIG. 2, FIG. 8. Here is the method: (b ) Proliferation of chronic myeloid leukaemic (CML) cells: Primarily CML cells from one patient were selected for their ability to incorporate [^3 H] thymidine in response to IL-3 as described (Lopez el. al., supra ). Briefly, CML cells were placed at 2×10^5 cells/mL fresh medium containing different concentrations of IL-3. Cells were incubated for 24 hours in a flat bottom 96-well NUNCLON plates (2×10^4 cells/well) before being pulsed with [^3 H] thymidine (0.5 μCi/well) for four more hours at 37° C. The cells were then harvested onto glass filters with a Titertek automated cell harvester and counted into a Beckman liquid scintillation counter. Data are expressed in cpm, and each point is the mean of six replicates.

For assay [3], the target named is T1, IL-3 high affinity receptor of monocytes (Homo sapiens, UniProt P26951+P32927).
T1 construct: endogenous in cells; host or cells: freshly purified human peripheral blood monocytes
T1 sequence (P26951 19-378): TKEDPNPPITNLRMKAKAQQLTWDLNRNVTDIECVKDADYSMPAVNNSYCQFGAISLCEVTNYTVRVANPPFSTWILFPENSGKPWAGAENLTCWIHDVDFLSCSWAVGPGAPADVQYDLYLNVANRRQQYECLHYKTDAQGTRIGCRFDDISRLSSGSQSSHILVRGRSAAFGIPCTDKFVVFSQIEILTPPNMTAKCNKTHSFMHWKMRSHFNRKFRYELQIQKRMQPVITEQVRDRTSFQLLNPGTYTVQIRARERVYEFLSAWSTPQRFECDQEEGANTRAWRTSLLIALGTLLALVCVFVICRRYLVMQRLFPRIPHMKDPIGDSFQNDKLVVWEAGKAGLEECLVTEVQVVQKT
T1 sequence (P32927 17-897): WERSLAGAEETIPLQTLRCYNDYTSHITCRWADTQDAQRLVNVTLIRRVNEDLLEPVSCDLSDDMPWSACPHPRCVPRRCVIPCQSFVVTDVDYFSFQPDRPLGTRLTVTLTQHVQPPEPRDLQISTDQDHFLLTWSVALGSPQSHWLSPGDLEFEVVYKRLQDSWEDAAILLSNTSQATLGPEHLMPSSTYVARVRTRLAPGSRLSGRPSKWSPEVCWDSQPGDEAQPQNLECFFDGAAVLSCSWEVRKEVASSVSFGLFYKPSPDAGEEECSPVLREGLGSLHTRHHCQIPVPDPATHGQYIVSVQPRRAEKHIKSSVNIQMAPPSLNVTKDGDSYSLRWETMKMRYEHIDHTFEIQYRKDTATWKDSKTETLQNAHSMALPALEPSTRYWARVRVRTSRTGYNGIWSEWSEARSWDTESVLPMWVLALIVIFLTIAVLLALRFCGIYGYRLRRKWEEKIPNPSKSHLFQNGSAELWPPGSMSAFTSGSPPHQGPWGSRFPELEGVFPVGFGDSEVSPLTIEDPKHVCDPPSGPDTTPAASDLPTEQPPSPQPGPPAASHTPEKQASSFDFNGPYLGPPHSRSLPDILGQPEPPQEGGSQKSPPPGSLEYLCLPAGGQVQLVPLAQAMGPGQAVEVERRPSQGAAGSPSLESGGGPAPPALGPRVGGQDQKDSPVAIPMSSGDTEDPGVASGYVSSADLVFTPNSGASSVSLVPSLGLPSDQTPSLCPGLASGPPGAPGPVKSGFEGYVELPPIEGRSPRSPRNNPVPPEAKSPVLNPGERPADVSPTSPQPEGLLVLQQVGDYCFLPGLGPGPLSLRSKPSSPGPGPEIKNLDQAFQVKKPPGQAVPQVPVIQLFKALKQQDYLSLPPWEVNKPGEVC
In words: Competition for 125I-IL-3 binding to the high affinity receptor of monocytes. The note with it: FIG. 5, at the concentrations tested. Here is the method: (a) Radioiodination of hIL-3: rh IL-3 (gift from Dr. L. Park, Immunex Corporation, Seattle, Wash.) was radioiodinated by the ICI method as previously described (Contreras et. al., supra). Iodinated protein was separated from free ^125 I by chromatography on a Sephadex G-25 PD 10 column (Pharmacia, Uppsala, Sweden) equilibrated in phosphate-buffered saline (PBS) containing 0.02% Tween 20, and stored at 4° C. for up to 4 weeks. Before use, the iodinated protein was purified from Tween and nonprotein-associated radioactivity by cation exchange chromatography on a 0.3-ml CM-Sepharose CL-6B column (Pharmacia) and stored at 4° C. for up to 5 days.
(b) Competition Binding assay. Freshly purified monocytes were suspended in binding medium consisting of RPMI 1640 supplemented with 20 mmol/L/HEPES and 0.5% bovine serum albumin (BSA). […] Cell suspensions were then overlaid on 0.2 mL FCS at 4° C. and centrifuged for 30 seconds at a maximum speed in a Beckman Microfugre 12. The tip of each tube was cut off above the visible cell pellet and counted in a Packard Auto-Gamma 5650 (Downer's Grove, Ill). The results are expressed as Percent competition where 100% is the competition observed in the presence of 100 fold excess native IL-3.

Where [4] appears, read: concentration of IL-3 mutant giving 50% of biological activity compared to that of wild type IL-3.

B1: M9: human IL-3 mutant, amino acid 116 (Lys) replaced by Val (protein, UniProt P08700 20-152, looked up, variant K116V)
Interleukin-3: APMTQTTPLKTSWVNCSNMIDEIITHLKQPPLPLLDFNNLNGEDQDILMENNLRRPNLEAFNRAVKSLQNASAIESILKNLLPCLPLATAAPTRHPIHIKDGDWNEFRRKLTFYLVTLENAQAQQTTLSLAIF
For B1, the “stimulation of monocyte adherence” value with monocytes is reported as “more potent than the wild type IL-3”. Also, in the assay with monocytes (setting [4]), the “Relative biological activity, MONOCYTE” value stood at 312. The “histamine release from basophils” value in the assay on basophils is listed as “increased histamine release”. In assay [1], the “number of day 14 colonies” value is reported as “increase in the number of day 14 colonies”. The “Relative biological activity, PROLIFERATION COLONIES” value in assay [1] (concentration of IL-3 mutant giving 50% of biological activity compared to that of wild type IL-3, mean ± SD) is 420. The “stimulation of CML cell proliferation” value in assay [2] is on record as “more potent than the wild type IL-3”. In addition, the “Relative biological activity, PROLIFERATION CML” value in assay [2] (setting [4]) stood at 328.

B2: M25: human IL-3 mutant with substitution of residues 21, 22 and 25 (protein, UniProt P08700 20-152, looked up, variant D21A E22L T25A)
Interleukin-3: APMTQTTPLKTSWVNCSNMIALIIAHLKQPPLPLLDFNNLNGEDQDILMENNLRRPNLEAFNRAVKSLQNASAIESILKNLLPCLPLATAAPTRHPIHIKDGDWNEFRRKLTFYLKTLENAQAQQTTLSLAIF
Turning to B2, in the assay on monocytes, the “stimulation of monocyte adherence” value is listed as “lack of stimulation”. For the same molecule, in assay [2], the “stimulation of CML cell proliferation” value is given as “lack of stimulation”. In assay [3], the “binding to high affinity IL-3 receptors of monocytes” value is recorded as “negative at binding”.
